How the values were obtained:
HLA-B*40:01 = assay: IEDB peptide-MHC binding, purified MHC/direct/fluorescence; filed as Kd, often an IC50 or EC50 that approximates it; ≥ and ≤ were set here for values at or beyond the usual limits of such assays
HLA-A*03:01 = assay: as above
HLA-B*46:01 [1] = assay: as above
HLA-B*15:01 = assay: as above
HLA-A*31:01 = assay: as above
HLA-B*27:05 [2] = assay: as above
HLA-A*69:01 = assay: as above; conditions: source organism: Yersinia pestis
HLA-A*26:01 = assay: as above; conditions: source organism: Yersinia pestis
HLA-A*02:01 = assay: as above; conditions: source organism: Yersinia pestis
HLA-A*11:01 = assay: as above
HLA-B*08:01 = assay: as above; conditions: source organism: Yersinia pestis
HLA-B*15:02 = assay: as above; conditions: source organism: Yersinia enterocolitica subsp. enterocolitica 8081
HLA-B*07:02 = assay: as above; conditions: source organism: Yersinia pestis
HLA-B*58:01 = assay: as above
HLA-B*27:05 [3] = assay: IEDB peptide-MHC binding, purified MHC/competitive/fluorescence; ≥ and ≤ were set here for values at or beyond the usual limits of such assays; conditions: source organism: Homo sapiens
HLA-C*04:01 = assay: IEDB peptide-MHC binding, purified MHC/direct/fluorescence; filed as Kd, often an IC50 or EC50 that approximates it; ≥ and ≤ were set here for values at or beyond the usual limits of such assays; conditions: source organism: Influenza A virus (A/turkey/Ohio/313053/2004(H3N2))
HLA-A*24:02 = assay: IEDB peptide-MHC binding, purified MHC/competitive/fluorescence; filed as Kd, often an IC50 or EC50 that approximates it; ≥ and ≤ were set here for values at or beyond the usual limits of such assays; conditions: source organism: Influenza A virus (A/turkey/Ohio/313053/2004(H3N2))
HLA-B*15:09 = assay: IEDB peptide-MHC binding, purified MHC/direct/fluorescence; filed as Kd, often an IC50 or EC50 that approximates it; ≥ and ≤ were set here for values at or beyond the usual limits of such assays; conditions: source organism: West Nile virus strain PTRoxo
HLA-B*48:01 = assay: as above; conditions: source organism: West Nile virus
HLA-C*05:01 = assay: as above; conditions: source organism: West Nile virus
HLA-B*18:01 = assay: as above; conditions: source organism: West Nile virus
HLA-A*29:02 = assay: as above; conditions: source organism: West Nile virus
HLA-B*44:02 = assay: as above; conditions: source organism: West Nile virus
HLA-B*57:01 = assay: as above; conditions: source organism: West Nile virus
HLA-B*39:01 = assay: as above; conditions: source organism: West Nile virus
HLA-B*83:01 = assay: IEDB peptide-MHC binding, purified MHC/competitive/fluorescence; filed as Kd, often an IC50 or EC50 that approximates it; ≥ and ≤ were set here for values at or beyond the usual limits of such assays
HLA-B*15:42 = assay: as above
HLA-A*68:23 = assay: as above; conditions: source organism: Mycobacterium tuberculosis variant bovis BCG str. Pasteur 1173P2
HLA-B*45:06 = assay: as above
HLA-C*06:02 = assay: IEDB peptide-MHC binding, purified MHC/direct/fluorescence; filed as Kd, often an IC50 or EC50 that approximates it; ≥ and ≤ were set here for values at or beyond the usual limits of such assays; conditions: source organism: Campylobacter jejuni subsp. jejuni NCTC 11168 = ATCC 700819
HLA-B*08:02 = assay: as above; conditions: source organism: Campylobacter jejuni subsp. jejuni 81116
HLA-B*46:01 [4] = assay: IEDB peptide-MHC binding, purified MHC/competitive/fluorescence; filed as Kd, often an IC50 or EC50 that approximates it; ≥ and ≤ were set here for values at or beyond the usual limits of such assays; conditions: source organism: Campylobacter jejuni subsp. jejuni NCTC 11168 = ATCC 700819
HLA-B*40:13 = assay: as above; conditions: source organism: Campylobacter jejuni subsp. jejuni NCTC 11168 = ATCC 700819
HLA-A*32:07 = assay: as above; conditions: source organism: Campylobacter jejuni subsp. jejuni NCTC 11168 = ATCC 700819
[5] = source organism: Yersinia pestis
[6] = source organism: West Nile virus
[7] = source organism: Mycobacterium tuberculosis variant bovis BCG str. Pasteur 1173P2
[8] = source organism: Campylobacter jejuni subsp. jejuni NCTC 11168 = ATCC 700819

Q: Which Kd (HLA-B*40:01; [5]) does the source give for RQLESRLGY here?
A: 3.74 µM

Q: What about the Kd (HLA-A*03:01; [5]) of the same sequence?
A: 0.0616 µM

Q: And the Kd (HLA-B*46:01 [1]; [5])?
A: ≥ 20 µM

Q: And the Kd (HLA-B*15:01; [5])?
A: 0.146 µM

Q: What about the Kd (HLA-A*31:01; [5]) of the same sequence?
A: 0.288 µM

Q: What about the Kd (HLA-B*27:05 [2]; [5]) of the same sequence?
A: 0.0656 µM

Q: What about the Kd (HLA-A*69:01) of the same sequence?
A: ≥ 20 µM

Q: What about the Kd (HLA-A*26:01) of the same sequence?
A: ≥ 20 µM

Q: And the Kd (HLA-A*02:01)?
A: ≥ 20 µM

Q: What about the Kd (HLA-A*11:01; [5]) of the same sequence?
A: 0.13 µM

Q: And the Kd (HLA-B*08:01)?
A: ≥ 20 µM

Q: What about the Kd (HLA-B*15:02) of the same sequence?
A: 0.077 µM

Q: What about the Kd (HLA-B*07:02) of the same sequence?
A: ≥ 20 µM

Q: And the Kd (HLA-B*58:01; [5])?
A: ≥ 20 µM

Q: For RRFFPYYV, which IC50 (HLA-B*27:05 [3]) is on record?
A: 3.2 µM

Q: Which Kd (HLA-C*04:01) does the source give for RYSGFVRTL here?
A: ≥ 20 µM

Q: And the Kd (HLA-A*24:02)?
A: 0.0011 µM

Q: TSDYINTSL was tested. Which Kd (HLA-B*40:01; [6]) did it give?
A: ≥ 20 µM

Q: What about the Kd (HLA-A*03:01; [6]) of the same sequence?
A: ≥ 20 µM

Q: And the Kd (HLA-B*15:09)?
A: ≥ 5 µM

Q: What about the Kd (HLA-B*48:01) of the same sequence?
A: ≥ 20 µM

Q: What about the Kd (HLA-B*46:01 [1]; [6]) of the same sequence?
A: ≥ 20 µM

Q: What about the Kd (HLA-C*05:01) of the same sequence?
A: 0.21 µM

Q: What about the Kd (HLA-B*18:01) of the same sequence?
A: ≥ 20 µM

Q: What about the Kd (HLA-B*15:01; [6]) of the same sequence?
A: ≥ 20 µM

Q: And the Kd (HLA-A*31:01; [6])?
A: ≥ 20 µM

Q: What about the Kd (HLA-A*29:02) of the same sequence?
A: ≥ 20 µM

Q: What about the Kd (HLA-B*27:05 [2]; [6]) of the same sequence?
A: ≥ 20 µM

Q: And the Kd (HLA-B*44:02)?
A: ≥ 20 µM

Q: What about the Kd (HLA-B*57:01) of the same sequence?
A: ≥ 20 µM

Q: And the Kd (HLA-A*11:01; [6])?
A: ≥ 20 µM

Q: And the Kd (HLA-B*39:01)?
A: 1.48 µM

Q: What about the Kd (HLA-B*58:01; [6]) of the same sequence?
A: ≥ 20 µM

Q: Which results are given for TTFDLTLRR?
A: Kd (HLA-B*83:01; [7]): ≥ 5 µM; Kd (HLA-B*15:42; [7]): ≥ 5 µM; Kd (HLA-A*68:23): 0.0121 µM; Kd (HLA-B*45:06; [7]): ≥ 5 µM

Q: How did the Kd (HLA-C*06:02) turn out when YMKKRYEEF was run?
A: ≥ 20 µM

Q: What about the Kd (HLA-B*08:02) of the same sequence?
A: 0.127 µM

Q: What about the Kd (HLA-B*83:01; [8]) of the same sequence?
A: ≥ 5 µM

Q: And the Kd (HLA-B*46:01 [4])?
A: 0.188 µM

Q: What about the Kd (HLA-B*15:42; [8]) of the same sequence?
A: ≥ 5 µM

Q: And the Kd (HLA-B*45:06; [8])?
A: ≥ 5 µM

Q: What about the Kd (HLA-B*40:13) of the same sequence?
A: 0.326 µM

Q: And the Kd (HLA-A*32:07)?
A: 0.232 µM
